Measurements reported in US20100047228.

Target: delta-plasminogen
Sequence (chain, as listed by the source mutant): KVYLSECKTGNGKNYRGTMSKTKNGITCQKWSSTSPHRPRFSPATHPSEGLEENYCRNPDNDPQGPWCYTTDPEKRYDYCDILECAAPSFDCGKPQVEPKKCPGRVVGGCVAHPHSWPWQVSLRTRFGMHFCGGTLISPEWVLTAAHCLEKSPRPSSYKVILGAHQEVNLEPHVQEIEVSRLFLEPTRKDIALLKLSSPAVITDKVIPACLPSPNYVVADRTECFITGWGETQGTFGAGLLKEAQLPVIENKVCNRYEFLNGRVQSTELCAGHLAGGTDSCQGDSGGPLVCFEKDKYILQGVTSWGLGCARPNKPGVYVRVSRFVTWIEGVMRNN

B1: tissue Plasminogen Activator (protein)
chain: SYQVICRDEKTQMIYQQHQSWLRPVLRSNRVEYCWCNSGRAQCHSVPVKSCSEPRCFNGGTCQQALYFSDFVCQCPEGFAGKCCEIDTRATCYEDQGISYRGTWSTAESGAECTNWNSSALAQKPYSGRRPDAIRLGLGNHNYCRNPDRDSKPWCYVFKAGKYSSEFCSTPACSEGNSDCYFGNGSAYRGTHSLTESGASCLPWNSMILIGKVYTAQNPSAQALGLGKHNYCRNPDGDAKPWCHVLKNRRLTWEYCDVPSCSTCGLRQYSQPQFRIKGGLFADIASHPWQAAIFAKHRRSPGERFLCGGILISSCWILSAAHCFQERFPPHHLTVILGRTYRVVPGEEEQKFEVEKYIVHKEFDDDTYDNDIALLQLKSDSSRCAQESSVVRTVCLPPADLQLPDWTECELSGYGKHEALSPFYSERLKEAHVRLYPSSRCTSQHLLNRTVTDNMLCAGDTRSGGPQANLHDACQGDSGGPLVCLNDGRMTLVGIISWGLGCGQKDVPGVYTKVTNYLDWIRDNMRP
- conversion of one-chain delta-plasminogen into two-chain delta-plasmin (reduced SDS-PAGE): delta-plasminogen indeed can be activated by all three plasminogen activators
